Results taken from patent publication US20240424117A1, “Paclitaxel Prodrug, Preparation Method and Application Thereof” (WEST CHINA HOSPITAL, SICHUAN UNIVERSITY, priority 2023, published 2024).

Experiments:
Assay type in all cases: physicochemical
[1] = Particle size, particle size distribution and zeta potential of micelles by dynamic light scattering; conditions: prodrug micelles in aqueous solution, 25° C.; for PDI / Size(nm): DLS
Procedure: The particle size, particle size distribution and zeta potential of micelles were measured by Zetasizer Nano ZS Dynamic light scattering (DLS) potentiometer (Malvern, UK) at 25° C. and 90° scattering angle.

[2] = Study on the stability of micelles in vitro (PBS or added glutathione, DLS); conditions: GSH added, 37° C. shaker, DLS (FIG. 5)
Procedure: In order to study the stability of micelles in vitro, the micellar solution was dropped into PBS simulating the human physiological environment, or a certain amount of glutathione was added. All samples were placed in a 37° C. constant temperature shaker (110 rpm), and the stability of micelles was studied by dynamic light scattering at the pre-determined time points.

[3] = Release performance of prodrug (dialysis, HPLC determination of paclitaxel); conditions: for time to almost complete release of paclitaxel: 37° C.; for change of release rate after the addition of GSH: with GSH (10 mM) versus without
Procedure: The testing instrument was Agilent 1260 series (USA), with a reversed phase C18 column (4.6×100 mm). The mobile phase was acetonitrile/water (80/20), the column temperature was 30° C., the flow rate was 1.0 mL/min, and the detection wavelength was 227 nm.
Firstly, HPLC was used to detect the response of PTX in this mobile phase. After accurately weighing a certain amount of paclitaxel, PTX was prepared with the mixed solvent of acetonitrile and ultrapure water (9/1, v/v) into a series of standard solutions at different concentrations. Linear regression was performed between the measured response peak area A and concentration C, to obtain the standard curve of the PTX solution. The curve equation was fitted, and the concentration-peak area curve equation of PTX was Y=25.025X, with a correlation coefficient of R^2=0.9996.
3 mL of drug-loaded micelles were loaded into a dialysis bag (MWCO=1000), and the release medium was PBS containing 30% ethanol (V/V) (pH 5.0 or 7.4). The release of paclitaxel from self-assembled nanoparticles of prodrug was investigated with or without the addition of glutathione (10 mM GSH). The specific procedures are as follows: 3 mL of prodrug nanoparticle solution (1 mg/mL) was placed into a dialysis bag (MW1000) and added to 30 mL of the release media, and then the entire system was transferred into a constant temperature shaker (37° C., 110 rpm). 1 mL of release solution was collected at different pre-determined time points, taking 3 parallel samples at each time point. After sampling, the same volume of pure PBS or PBS containing 10 mM GSH (10 Mm) was supplemented, and the drug concentration was determined by HPLC. The cumulative release was calculated using the following formula:
[formula] • wherein R is the cumulative release amount; Vi is the total volume of the solution before the i-th sampling; Ci is the total concentration of the solution before the i-th sampling; Vsj is the jth sampling volume; Cj is the total concentration of the solution before the jth sampling, i=2, 3, 4 . . .; j=i−1.

[4] = Transmission electron microscopy of micellar morphology; conditions: TEM (FIG. 3)
Procedure: A small amount of micellar solution fully mixed under ultrasonic was added dropwise onto the copper mesh coated with Formvar film, and then dyed with 1% (w/v) phosphotungstic acid staining solution for 3 min. Subsequently, the excess liquid was absorbed with filter paper, and the copper mesh was allowed to dry naturally. Then, Tecnai G2 F20 S-TWIN transmission electron microscopy (FEI Corporation, USA) was used to observe the micellar morphology, and the acceleration voltage was 75 KV.

[5] = acidic pH 5.0, with GSH (10 mM)
[6] = neutral pH 7.4, with GSH (10 mM)

Substance: paclitaxel-adipic acid-polyethylene glycol [PAP]
- Zeta Potential(mV) [1]: −13.2 ± 0.6 mV
- PDI [1]: 0.103 ± 0.037
- Size(nm) [1]: 109.43 ± 0.94 nm

Substance: paclitaxel-adipic acid-polyethylene glycol-RGD peptide [PAPR]
- Zeta Potential(mV) [1]: −9.91 ± 0.3 mV
- PDI [1]: 0.110 ± 0.002
- Size(nm) [1]: 117.93 ± 5.57 nm

Substance: paclitaxel-dithiodipropionic acid-polyethylene glycol [PDP]
- Zeta Potential(mV) [1]: −18.1 ± 0.8 mV
- PDI [1]: 0.166 ± 0.003
- Size(nm) [1]: 129.07 ± 1.76 nm
- micelle state (particle size and PDI) after addition of glutathione [2]: significantly disintegrated
- time to almost complete release of paclitaxel [3, 5]: 144 h
- time to almost complete release of paclitaxel [3, 6]: 120 h
- change of release rate after the addition of GSH [3]: significantly accelerated

Substance: paclitaxel-dithiodipropionic acid-polyethylene glycol-RGD Peptide [PDPR]
- Zeta Potential(mV) [1]: −7.38 ± 0.8 mV
- PDI [1]: 0.065 ± 0.012
- Size(nm) [1]: 114.63 ± 1.53 nm
- micelle morphology and dispersion [4]: uniform particle size and dispersion
- micelle state (particle size and PDI) after addition of glutathione [2]: significantly disintegrated
- time to almost complete release of paclitaxel [3, 5]: 144 h
- time to almost complete release of paclitaxel [3, 6]: 120 h
- change of release rate after the addition of GSH [3]: significantly accelerated
